Measurements published in the Human Domainome abundance scans (Beltran et al. 2025).
± gives the uncertainty stated by the source.

B1: SH3 and PX domain-containing protein 2B, residues 155 to 209; numbered along this chain, A1X283 (parent)
chain: EQYVVVANYQKQESSEISLSVGQVVDIIEKNESGWWFVSTAEEQGWVPATCLEGQ

Variants of: B1
Assay: abundance fitness (aPCA) (normalised: wild type 0, dead -1); higher = more abundant; growth selection in yeast, the domain comes from the species named
Details: Homo sapiens

| Variant | abundance fitness |
| --- | --- |
| EQYVVVANYQKQERSEISLSVGQVVDIIEKNESGWWFVSTAEEQGWVPATCLEGQ [S14R] | -0.073 ± 0.068 |
| EQYVVVANYQKQETSEISLSVGQVVDIIEKNESGWWFVSTAEEQGWVPATCLEGQ [S14T] | -0.036 ± 0.087 |
| EQYVVVANYQKQEVSEISLSVGQVVDIIEKNESGWWFVSTAEEQGWVPATCLEGQ [S14V] | 0.014 ± 0.086 |
| EQYVVVANYQKQEWSEISLSVGQVVDIIEKNESGWWFVSTAEEQGWVPATCLEGQ [S14W] | -0.171 ± 0.1 |
| EQYVVVANYQKQEYSEISLSVGQVVDIIEKNESGWWFVSTAEEQGWVPATCLEGQ [S14Y] | -0.073 ± 0.13 |
| EQYVVVANYQKQESAEISLSVGQVVDIIEKNESGWWFVSTAEEQGWVPATCLEGQ [S15A] | -0.01 ± 0.085 |
| EQYVVVANYQKQESCEISLSVGQVVDIIEKNESGWWFVSTAEEQGWVPATCLEGQ [S15C] | -0.063 ± 0.1 |
| EQYVVVANYQKQESDEISLSVGQVVDIIEKNESGWWFVSTAEEQGWVPATCLEGQ [S15D] | 0.02 ± 0.15 |
| EQYVVVANYQKQESEEISLSVGQVVDIIEKNESGWWFVSTAEEQGWVPATCLEGQ [S15E] | -0.172 ± 0.11 |
| EQYVVVANYQKQESFEISLSVGQVVDIIEKNESGWWFVSTAEEQGWVPATCLEGQ [S15F] | -0.244 ± 0.093 |
| EQYVVVANYQKQESGEISLSVGQVVDIIEKNESGWWFVSTAEEQGWVPATCLEGQ [S15G] | -0.073 ± 0.073 |
| EQYVVVANYQKQESHEISLSVGQVVDIIEKNESGWWFVSTAEEQGWVPATCLEGQ [S15H] | 0.055 ± 0.23 |
| EQYVVVANYQKQESIEISLSVGQVVDIIEKNESGWWFVSTAEEQGWVPATCLEGQ [S15I] | -0.201 ± 0.14 |
| EQYVVVANYQKQESLEISLSVGQVVDIIEKNESGWWFVSTAEEQGWVPATCLEGQ [S15L] | -0.27 ± 0.079 |
| EQYVVVANYQKQESMEISLSVGQVVDIIEKNESGWWFVSTAEEQGWVPATCLEGQ [S15M] | -0.18 ± 0.12 |
| EQYVVVANYQKQESNEISLSVGQVVDIIEKNESGWWFVSTAEEQGWVPATCLEGQ [S15N] | -0.061 ± 0.23 |
| EQYVVVANYQKQESPEISLSVGQVVDIIEKNESGWWFVSTAEEQGWVPATCLEGQ [S15P] | -0.121 ± 0.13 |
| EQYVVVANYQKQESQEISLSVGQVVDIIEKNESGWWFVSTAEEQGWVPATCLEGQ [S15Q] | 0.103 ± 0.12 |
| EQYVVVANYQKQESREISLSVGQVVDIIEKNESGWWFVSTAEEQGWVPATCLEGQ [S15R] | 0.04 ± 0.073 |
| EQYVVVANYQKQESTEISLSVGQVVDIIEKNESGWWFVSTAEEQGWVPATCLEGQ [S15T] | -0.103 ± 0.12 |
| EQYVVVANYQKQESVEISLSVGQVVDIIEKNESGWWFVSTAEEQGWVPATCLEGQ [S15V] | -0.119 ± 0.095 |
| EQYVVVANYQKQESWEISLSVGQVVDIIEKNESGWWFVSTAEEQGWVPATCLEGQ [S15W] | -0.049 ± 0.1 |
| EQYVVVANYQKQESYEISLSVGQVVDIIEKNESGWWFVSTAEEQGWVPATCLEGQ [S15Y] | -0.092 ± 0.092 |
| EQYVVVANYQKQESSAISLSVGQVVDIIEKNESGWWFVSTAEEQGWVPATCLEGQ [E16A] | -0.312 ± 0.079 |

| Variant | abundance fitness |
| --- | --- |
| EQYVVVANYQKQESSCISLSVGQVVDIIEKNESGWWFVSTAEEQGWVPATCLEGQ [E16C] | -0.505 ± 0.16 |
| EQYVVVANYQKQESSDISLSVGQVVDIIEKNESGWWFVSTAEEQGWVPATCLEGQ [E16D] | -0.211 ± 0.15 |
| EQYVVVANYQKQESSFISLSVGQVVDIIEKNESGWWFVSTAEEQGWVPATCLEGQ [E16F] | -0.868 ± 0.17 |
| EQYVVVANYQKQESSGISLSVGQVVDIIEKNESGWWFVSTAEEQGWVPATCLEGQ [E16G] | 0.057 ± 0.061 |
| EQYVVVANYQKQESSIISLSVGQVVDIIEKNESGWWFVSTAEEQGWVPATCLEGQ [E16I] | -0.692 ± 0.19 |
| EQYVVVANYQKQESSKISLSVGQVVDIIEKNESGWWFVSTAEEQGWVPATCLEGQ [E16K] | -0.16 ± 0.16 |
| EQYVVVANYQKQESSLISLSVGQVVDIIEKNESGWWFVSTAEEQGWVPATCLEGQ [E16L] | -0.805 ± 0.12 |
| EQYVVVANYQKQESSMISLSVGQVVDIIEKNESGWWFVSTAEEQGWVPATCLEGQ [E16M] | -0.449 ± 0.093 |
| EQYVVVANYQKQESSNISLSVGQVVDIIEKNESGWWFVSTAEEQGWVPATCLEGQ [E16N] | -0.2 ± 0.14 |
| EQYVVVANYQKQESSPISLSVGQVVDIIEKNESGWWFVSTAEEQGWVPATCLEGQ [E16P] | -0.667 ± 0.17 |
| EQYVVVANYQKQESSQISLSVGQVVDIIEKNESGWWFVSTAEEQGWVPATCLEGQ [E16Q] | -0.008 ± 0.15 |
| EQYVVVANYQKQESSSISLSVGQVVDIIEKNESGWWFVSTAEEQGWVPATCLEGQ [E16S] | -0.177 ± 0.091 |
| EQYVVVANYQKQESSTISLSVGQVVDIIEKNESGWWFVSTAEEQGWVPATCLEGQ [E16T] | -0.178 ± 0.1 |
| EQYVVVANYQKQESSVISLSVGQVVDIIEKNESGWWFVSTAEEQGWVPATCLEGQ [E16V] | -0.92 ± 0.093 |
| EQYVVVANYQKQESSWISLSVGQVVDIIEKNESGWWFVSTAEEQGWVPATCLEGQ [E16W] | -0.55 ± 0.12 |
| EQYVVVANYQKQESSYISLSVGQVVDIIEKNESGWWFVSTAEEQGWVPATCLEGQ [E16Y] | -0.853 ± 0.3 |
| EQYVVVANYQKQESSEASLSVGQVVDIIEKNESGWWFVSTAEEQGWVPATCLEGQ [I17A] | -0.201 ± 0.13 |
| EQYVVVANYQKQESSECSLSVGQVVDIIEKNESGWWFVSTAEEQGWVPATCLEGQ [I17C] | 0.014 ± 0.1 |
| EQYVVVANYQKQESSEDSLSVGQVVDIIEKNESGWWFVSTAEEQGWVPATCLEGQ [I17D] | -0.889 ± 0.37 |
| EQYVVVANYQKQESSEESLSVGQVVDIIEKNESGWWFVSTAEEQGWVPATCLEGQ [I17E] | -0.99 ± 0.15 |
| EQYVVVANYQKQESSEFSLSVGQVVDIIEKNESGWWFVSTAEEQGWVPATCLEGQ [I17F] | -0.597 ± 0.16 |
| EQYVVVANYQKQESSEGSLSVGQVVDIIEKNESGWWFVSTAEEQGWVPATCLEGQ [I17G] | -0.863 ± 0.086 |
| EQYVVVANYQKQESSEHSLSVGQVVDIIEKNESGWWFVSTAEEQGWVPATCLEGQ [I17H] | -0.715 ± 0.24 |
| EQYVVVANYQKQESSEKSLSVGQVVDIIEKNESGWWFVSTAEEQGWVPATCLEGQ [I17K] | -0.692 ± 0.14 |
